In publication PMC9482650, “Quantitative fragmentomics allow affinity mapping of interactomes” (Nature Communications, 2022):

T1: NHERF3_4, Q5T2W1
T1 sequence (Q5T2W1 373-468, limits assumed, looked up): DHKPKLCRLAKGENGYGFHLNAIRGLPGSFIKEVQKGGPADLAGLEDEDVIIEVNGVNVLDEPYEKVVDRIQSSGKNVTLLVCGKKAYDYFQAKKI

T2: MPDZ_5, O75970
T2 sequence (O75970 695-796, limits assumed, looked up): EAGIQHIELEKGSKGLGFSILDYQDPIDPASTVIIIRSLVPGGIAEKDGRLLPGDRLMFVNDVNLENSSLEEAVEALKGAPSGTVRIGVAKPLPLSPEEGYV

T3: MPP6, Q9NZW5
T3 sequence (Q9NZW5 125-219, limits assumed, looked up): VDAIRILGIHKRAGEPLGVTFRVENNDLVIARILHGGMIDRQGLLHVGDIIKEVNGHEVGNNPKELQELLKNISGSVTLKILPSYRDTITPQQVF

T4: NHERF3_1, Q5T2W1
T4 sequence (Q5T2W1 4-100, limits assumed, looked up): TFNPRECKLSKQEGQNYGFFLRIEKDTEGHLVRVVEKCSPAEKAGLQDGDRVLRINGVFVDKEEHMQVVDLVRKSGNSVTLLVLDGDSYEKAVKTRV

T5: PDZD2_2, O15018
T5 sequence (O15018 329-429, limits assumed, looked up): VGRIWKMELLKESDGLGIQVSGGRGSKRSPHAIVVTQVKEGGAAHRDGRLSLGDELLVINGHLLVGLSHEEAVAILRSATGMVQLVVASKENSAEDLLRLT

T6: SNTA1, Q13424
T6 sequence (Q13424 82-180, limits assumed, looked up): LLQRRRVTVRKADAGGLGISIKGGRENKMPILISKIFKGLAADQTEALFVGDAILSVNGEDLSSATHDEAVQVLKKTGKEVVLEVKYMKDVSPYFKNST

T7: DFNB31_2, Q9P202
T7 sequence (Q9P202 274-371, limits assumed, looked up): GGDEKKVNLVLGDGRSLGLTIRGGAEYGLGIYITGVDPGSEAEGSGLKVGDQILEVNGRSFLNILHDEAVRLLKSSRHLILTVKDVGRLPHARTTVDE

T8: LIN7A, O14910
T8 sequence (O14910 103-200, limits assumed, looked up): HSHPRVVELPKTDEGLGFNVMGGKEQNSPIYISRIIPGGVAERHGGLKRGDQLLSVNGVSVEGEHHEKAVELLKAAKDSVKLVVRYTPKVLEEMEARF

T9: SIPA1L2, Q9P2F8
T9 sequence (Q9P2F8 945-1036, limits assumed, looked up): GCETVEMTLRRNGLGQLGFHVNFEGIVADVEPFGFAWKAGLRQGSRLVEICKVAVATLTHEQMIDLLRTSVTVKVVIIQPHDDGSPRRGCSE

T10: CARD11, Q9BXL7
T10 sequence (Q9BXL7 662-765, limits assumed, looked up): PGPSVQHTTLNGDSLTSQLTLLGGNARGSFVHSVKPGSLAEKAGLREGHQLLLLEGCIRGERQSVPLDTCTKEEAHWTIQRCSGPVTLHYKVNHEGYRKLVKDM

T11: PCLO, Q9Y6V0
T11 sequence (Q9Y6V0 4491-4600, limits assumed, looked up): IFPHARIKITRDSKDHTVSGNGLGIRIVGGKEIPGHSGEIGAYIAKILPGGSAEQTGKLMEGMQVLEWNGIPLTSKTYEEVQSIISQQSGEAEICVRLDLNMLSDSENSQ

T12: DFNB31_3, Q9P202
T12 sequence (Q9P202 811-907, limits assumed, looked up): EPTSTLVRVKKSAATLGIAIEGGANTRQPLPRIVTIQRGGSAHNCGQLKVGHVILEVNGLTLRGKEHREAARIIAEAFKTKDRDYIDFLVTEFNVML

B1: TRPV3, Q8NET8 (peptide)
chain: EVEEFPETSV
B2: PDLIM4_iso2, P50479;P50479-1 (peptide)
chain: VYPNAKVELV
B3: PRKD2, Q9BZL6 (peptide)
chain: QGLAERISVL

The binders below were run against DLG1_2, Q12959 (assay: holdup assay). Details: plain residues with an end cap or a label only (N-terminal biotin on a linker: ado-ado).
Set-up: key: below the threshold = too weak to quantify, mostly under pKd 3.1 to 4
B1 gave a pKd of 4.51. B2 was tested, and the pKd was “below the threshold”. In the case of B3, the pKd is reported as 3.67.

These binders were tested against T1, NHERF3_4, Q5T2W1 (assay: holdup assay). Details: plain residues with an end cap or a label only (N-terminal biotin on a linker: ado-ado).
Set-up: key: below the threshold = too weak to quantify, mostly under pKd 3.1 to 4
B1 was tested, and the pKd was “below the threshold”. B2 was tested, and the pKd was “below the threshold”. Work on B3 yielded a pKd of 3.73.

The binders below were run against T2, MPDZ_5, O75970 (assay: holdup assay). Details: plain residues with an end cap or a label only (N-terminal biotin on a linker: ado-ado).
Set-up: key: below the threshold = too weak to quantify, mostly under pKd 3.1 to 4
Binder B1 has a pKd of 3.56. In the case of B2, the pKd is reported as “below the threshold”. B3 was tested, and the pKd was “below the threshold”.

These binders were tested against MAGI2_2, Q86UL8 (assay: holdup assay). Details: plain residues with an end cap or a label only (N-terminal biotin on a linker: ado-ado).
MAGI2_2, Q86UL8, sequence (Q86UL8 410-522): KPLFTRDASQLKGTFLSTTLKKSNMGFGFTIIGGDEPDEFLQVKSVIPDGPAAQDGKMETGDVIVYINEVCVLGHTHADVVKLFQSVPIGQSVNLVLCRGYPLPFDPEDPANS
Set-up: key: below the threshold = too weak to quantify, mostly under pKd 3.1 to 4
B1 was tested, and the pKd was 3.76. With B2 the pKd was “below the threshold”. In the case of B3, the pKd is reported as “below the threshold”.

The binders below were run against T3, MPP6, Q9NZW5 (assay: holdup assay). Details: plain residues with an end cap or a label only (N-terminal biotin on a linker: ado-ado).
Set-up: key: below the threshold = too weak to quantify, mostly under pKd 3.1 to 4
With B1 the pKd was “below the threshold”. B2 was tested, and the pKd was “below the threshold”. B3 was tested, and the pKd was “below the threshold”.

What follows are binders tested against T4, NHERF3_1, Q5T2W1 (assay: holdup assay). Details: plain residues with an end cap or a label only (N-terminal biotin on a linker: ado-ado).
Set-up: key: below the threshold = too weak to quantify, mostly under pKd 3.1 to 4
B1 was tested, and the pKd was 4.47. For B2, the pKd was “below the threshold”. B3 was tested, and the pKd was 4.28.

The binders below were run against GRIP2_6, Q9C0E4 (assay: holdup assay). Details: plain residues with an end cap or a label only (N-terminal biotin on a linker: ado-ado).
GRIP2_6, Q9C0E4, sequence (Q9C0E4 648-740): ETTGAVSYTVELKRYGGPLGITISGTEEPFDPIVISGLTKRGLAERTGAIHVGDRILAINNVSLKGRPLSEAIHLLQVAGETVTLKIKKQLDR
Set-up: key: below the threshold = too weak to quantify, mostly under pKd 3.1 to 4
In the case of B1, the pKd is reported as “below the threshold”. With B2 the pKd was “below the threshold”. B3 was tested, and the pKd was “below the threshold”.

The binders below were run against T5, PDZD2_2, O15018 (assay: holdup assay). Details: plain residues with an end cap or a label only (N-terminal biotin on a linker: ado-ado).
Set-up: key: below the threshold = too weak to quantify, mostly under pKd 3.1 to 4
In the case of B1, the pKd is reported as 4.99. For B2, the pKd was “below the threshold”. B3 gave a pKd of 4.32.

What follows are binders tested against MAST1, Q9Y2H9 (assay: holdup assay). Details: plain residues with an end cap or a label only (N-terminal biotin on a linker: ado-ado).
MAST1, Q9Y2H9, sequence (Q9Y2H9 962-1065): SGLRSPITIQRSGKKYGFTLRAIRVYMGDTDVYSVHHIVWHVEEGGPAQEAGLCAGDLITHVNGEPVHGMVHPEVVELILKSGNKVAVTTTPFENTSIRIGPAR
Set-up: key: below the threshold = too weak to quantify, mostly under pKd 3.1 to 4
B1 showed a pKd of 4.21. B2 was tested, and the pKd was “below the threshold”. Binder B3 has a pKd of 4.52.

These binders were tested against IL16_3, Q14005 (assay: holdup assay). Details: plain residues with an end cap or a label only (N-terminal biotin on a linker: ado-ado).
IL16_3, Q14005, sequence (Q14005 1107-1207): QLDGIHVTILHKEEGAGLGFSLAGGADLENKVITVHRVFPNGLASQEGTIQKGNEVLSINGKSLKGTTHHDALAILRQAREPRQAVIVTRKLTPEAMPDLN
Set-up: key: below the threshold = too weak to quantify, mostly under pKd 3.1 to 4
B1 was tested, and the pKd was “below the threshold”. For B2, the pKd was “below the threshold”. With B3 the pKd was “below the threshold”.

The binders below were run against T6, SNTA1, Q13424 (assay: holdup assay). Details: plain residues with an end cap or a label only (N-terminal biotin on a linker: ado-ado).
Set-up: key: below the threshold = too weak to quantify, mostly under pKd 3.1 to 4
B1 was tested, and the pKd was 5.22. B2 was tested, and the pKd was “below the threshold”. In the case of B3, the pKd is reported as 4.71.

Each binder was assayed against GIPC2, Q8TF65 (assay: holdup assay). Details: plain residues with an end cap or a label only (N-terminal biotin on a linker: ado-ado).
GIPC2, Q8TF65, sequence (Q8TF65 112-203): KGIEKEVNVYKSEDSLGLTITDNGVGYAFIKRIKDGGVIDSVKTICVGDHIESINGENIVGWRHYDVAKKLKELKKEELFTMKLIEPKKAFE
Set-up: key: below the threshold = too weak to quantify, mostly under pKd 3.1 to 4
For B1, the pKd was 4.32. B2 was tested, and the pKd was “below the threshold”. In the case of B3, the pKd is reported as “below the threshold”.

These binders were tested against DLG1_1, Q12959 (assay: holdup assay). Details: plain residues with an end cap or a label only (N-terminal biotin on a linker: ado-ado).
Set-up: key: below the threshold = too weak to quantify, mostly under pKd 3.1 to 4
In the case of B1, the pKd is reported as 4.25. In the case of B2, the pKd is reported as “below the threshold”. In the case of B3, the pKd is reported as “below the threshold”.

The binders below were run against GRASP, Q7Z6J2 (assay: holdup assay). Details: plain residues with an end cap or a label only (N-terminal biotin on a linker: ado-ado).
GRASP, Q7Z6J2, sequence (Q7Z6J2 96-193): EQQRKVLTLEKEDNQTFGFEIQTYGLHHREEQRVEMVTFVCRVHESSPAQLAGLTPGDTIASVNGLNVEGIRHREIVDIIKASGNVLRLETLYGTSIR
Set-up: key: below the threshold = too weak to quantify, mostly under pKd 3.1 to 4
Work on B1 yielded a pKd of 3.9. B2 was tested, and the pKd was “below the threshold”. With B3 the pKd was 4.73.

These binders were tested against GRIP2_5, Q9C0E4 (assay: holdup assay). Details: plain residues with an end cap or a label only (N-terminal biotin on a linker: ado-ado).
GRIP2_5, Q9C0E4, sequence (Q9C0E4 544-642): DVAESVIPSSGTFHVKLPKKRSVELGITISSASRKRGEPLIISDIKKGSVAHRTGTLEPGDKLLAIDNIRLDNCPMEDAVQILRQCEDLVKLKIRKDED
Set-up: key: below the threshold = too weak to quantify, mostly under pKd 3.1 to 4
B1 was tested, and the pKd was “below the threshold”. With B2 the pKd was “below the threshold”. B3 was tested, and the pKd was “below the threshold”.

These binders were tested against FRMPD2_2, Q68DX3 (assay: holdup assay). Details: plain residues with an end cap or a label only (N-terminal biotin on a linker: ado-ado).
FRMPD2_2, Q68DX3, sequence (Q68DX3 944-1038): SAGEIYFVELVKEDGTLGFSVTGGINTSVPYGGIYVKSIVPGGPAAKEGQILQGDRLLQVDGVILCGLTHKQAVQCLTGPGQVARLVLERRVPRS
Set-up: key: below the threshold = too weak to quantify, mostly under pKd 3.1 to 4
B1 was tested, and the pKd was 5.16. In the case of B2, the pKd is reported as “below the threshold”. For B3, the pKd was “below the threshold”.

Each binder was assayed against FRMPD2_3, Q68DX3 (assay: holdup assay). Details: plain residues with an end cap or a label only (N-terminal biotin on a linker: ado-ado).
FRMPD2_3, Q68DX3, sequence (Q68DX3 1073-1166): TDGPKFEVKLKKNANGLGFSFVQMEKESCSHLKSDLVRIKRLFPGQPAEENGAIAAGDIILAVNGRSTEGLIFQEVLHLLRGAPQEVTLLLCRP
Set-up: key: below the threshold = too weak to quantify, mostly under pKd 3.1 to 4
With B1 the pKd was “below the threshold”. With B2 the pKd was “below the threshold”. B3 was tested, and the pKd was “below the threshold”.

The binders below were run against T7, DFNB31_2, Q9P202 (assay: holdup assay). Details: plain residues with an end cap or a label only (N-terminal biotin on a linker: ado-ado).
Set-up: key: below the threshold = too weak to quantify, mostly under pKd 3.1 to 4
B1 was tested, and the pKd was 3.5. In the case of B2, the pKd is reported as “below the threshold”. In the case of B3, the pKd is reported as “below the threshold”.

What follows are binders tested against GRID2IP_2, A4D2P6 (assay: holdup assay). Details: plain residues with an end cap or a label only (N-terminal biotin on a linker: ado-ado).
GRID2IP_2, A4D2P6, sequence (A4D2P6 272-370): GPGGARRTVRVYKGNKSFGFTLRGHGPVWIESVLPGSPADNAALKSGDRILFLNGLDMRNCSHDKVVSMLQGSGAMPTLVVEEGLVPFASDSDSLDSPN
Set-up: key: below the threshold = too weak to quantify, mostly under pKd 3.1 to 4
Binder B1 has a pKd of 4.39. With B2 the pKd was “below the threshold”. For B3, the pKd was 4.81.

The binders below were run against T8, LIN7A, O14910 (assay: holdup assay). Details: plain residues with an end cap or a label only (N-terminal biotin on a linker: ado-ado).
Set-up: key: below the threshold = too weak to quantify, mostly under pKd 3.1 to 4
B1 showed a pKd of 4.15. B2 was tested, and the pKd was “below the threshold”. With B3 the pKd was “below the threshold”.

What follows are binders tested against T9, SIPA1L2, Q9P2F8 (assay: holdup assay). Details: plain residues with an end cap or a label only (N-terminal biotin on a linker: ado-ado).
Set-up: key: below the threshold = too weak to quantify, mostly under pKd 3.1 to 4
In the case of B1, the pKd is reported as 3.55. In the case of B2, the pKd is reported as “below the threshold”. For B3, the pKd was “below the threshold”.

The binders below were run against NHERF2_2, Q15599 (assay: holdup assay). Details: plain residues with an end cap or a label only (N-terminal biotin on a linker: ado-ado).
NHERF2_2, Q15599, sequence (Q15599 142-238): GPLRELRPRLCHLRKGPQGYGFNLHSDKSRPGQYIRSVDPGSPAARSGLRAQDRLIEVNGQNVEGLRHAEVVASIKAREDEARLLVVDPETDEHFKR
Set-up: key: below the threshold = too weak to quantify, mostly under pKd 3.1 to 4
B1 showed a pKd of 3.72. With B2 the pKd was “below the threshold”. Binder B3 has a pKd of 4.5.

What follows are binders tested against DLG2_3, Q15700 (assay: holdup assay). Details: plain residues with an end cap or a label only (N-terminal biotin on a linker: ado-ado).
Set-up: key: below the threshold = too weak to quantify, mostly under pKd 3.1 to 4
B1 gave a pKd of 4.41. In the case of B2, the pKd is reported as “below the threshold”. In the case of B3, the pKd is reported as “below the threshold”.

Each binder was assayed against T10, CARD11, Q9BXL7 (assay: holdup assay). Details: plain residues with an end cap or a label only (N-terminal biotin on a linker: ado-ado).
Set-up: key: below the threshold = too weak to quantify, mostly under pKd 3.1 to 4
For B1, the pKd was 3.49. For B2, the pKd was “below the threshold”. In the case of B3, the pKd is reported as “below the threshold”.

Each binder was assayed against T11, PCLO, Q9Y6V0 (assay: holdup assay). Details: plain residues with an end cap or a label only (N-terminal biotin on a linker: ado-ado).
Set-up: key: below the threshold = too weak to quantify, mostly under pKd 3.1 to 4
In the case of B1, the pKd is reported as “below the threshold”. B2 was tested, and the pKd was “below the threshold”. For B3, the pKd was “below the threshold”.

What follows are binders tested against T12, DFNB31_3, Q9P202 (assay: holdup assay). Details: plain residues with an end cap or a label only (N-terminal biotin on a linker: ado-ado).
Set-up: key: below the threshold = too weak to quantify, mostly under pKd 3.1 to 4
In the case of B1, the pKd is reported as “below the threshold”. B2 was tested, and the pKd was “below the threshold”. Work on B3 yielded a pKd of 4.26.
